What is called Kd is the concentration at which binding is half-saturated. Lower therefore signals a tighter complex.

Residue numbers refer to the chain shown, from its start.

Assay [1] has as its target NiV F expressed in HeLa cells under IRES-GFP (Nipah virus, Malaysia, UniProt Q9IH63). Kind of assay: immunostaining of cells or tissue.
Assay [2] has as its target DS90 FcM (DS90 nanobody fused to human monomeric Fc) (alpaca (Vicugna pacos)). As to the kind of experiment: SPR. For orientation: Surface plasmon resonance follows binding to a sensor surface in real time, without labels.
Assay [3] concerns the target DS34 FcM (DS34 nanobody fused to human monomeric Fc) (alpaca (Vicugna pacos)). Kind of assay: SPR.
Assay [4] concerns the target DS90 Fc dimer (DS90 nanobody fused to human Fc) (alpaca (Vicugna pacos)). As to the kind of experiment: SPR.
Assay [5] deals with DS76 FcM (DS76 nanobody fused to human monomeric Fc) (alpaca (Vicugna pacos)). Kind of assay: SPR.

B1: DS29 clone, E. coli crude extract of the bacterial display library (VHH)
VHH: VQLVESGGGLVQPGGSLRLSCAASGFTFDDYGMSWVRQAPGKGLEWVSAISWNGGGTYYAESMKGRFTISRDNAKNTVYLQMNGLKPEDTAVYYCAKPSTYSGSWLTDFGSWGQGTQVTVSS
On to B1, for which, in assay [1], the binding result is reported as “binds”.

B2: Biotinylated prefusion NiV F with AviTag (domain or fragment)
chain: ILHYEKLSKIGLVKGVTRKYKIKSNPLTKDIVIKMIPNVSNMSQCTGSVMENYKTRLNGILTPIKGALEIYKNNTHDLVGDVRLAGVIMAGVAIGIATAAQITAGVALYEAMKNADNINKLKSSIESTNEAVVKLQETAEKTVYVLTALQDYINTNLVPTIDKISCKQTELSLDLALSKYLSDLLFVFGPNLQDPVSNSMTIQAISQAFGGNYETLLRTLGYATEDFDDLLESDSITGQIIYVDLSSYYIIVRVYFPILTEIQQAYIQELLPVSFNNDNSEWISIVPNFILVRNTLISNIEIGFCLITKRSVICNQDYATPMTNNMRECLTGSTEKCPRELVVSSHVPRFALSNGVLFANCISVTCQCQTTGRAISQSGEQTLLMIDNTTCPTAVLGNVIISLGKYLGSVNYNSEGIAIGPPVFTDKVDISSQISSMNQSLQQSKDYIKEAQRLLDT
modifications: biotin (on the AviTag, by BirA)
For the molecule B2, the values for the Kd in assay [2], in assay [3] and in assay [5] were 4.83 nM, 23.4 nM and 303 nM, respectively. Moreover, the binding result in assay [4] was “binds”.

B3: DS90 clone, E. coli crude extract of the bacterial display library (VHH)
VHH: VQLVESGGGLVQAGGSLRLSCAASGRTFSSYVMGWYRQAPGKEREFVARISWSGGHTHSADSVKGRFTISRDNAKNTVYLQMNSLKPDDTAIYYCNAEPTVTGSWFTPGLQSYWGQGTQVTVSS
With B3, the binding result in assay [1] is on record as “binds”.

B4: DS76 clone, E. coli crude extract of the bacterial display library (VHH)
VHH: B3 VHH with R18G, T100S
As for B4, the binding result in assay [1] is “binds”.

B5: DS34 clone, E. coli crude extract of the bacterial display library (VHH)
VHH: B3 VHH with V101A
As for B5, in assay [1], the binding result is on record as “binds”.

B6: Bacterially expressed DS90-cMyc (VHH)
VHH: B3 VHH
Take B6: the binding result in assay [1] was “binds”.
